Entries after “also recorded” stand apart in the source; their conditions may differ.
Assays:
[1] = target: T1, VP16/full-length VP22 interaction (Human herpesvirus 1, UniProt P06492); experiment: Far Western analysis of peptides blocking VP16 binding to full-length VP22 (vUL49ep L-particle extract); design: species or system HSV-1; details: strips pre-incubated with 1 mg peptide, FIG. 8
T1 construct: Plasmid pETVP16 was used to express full-length VP16 under the control of the T7 RNA polymerase promoter; made in house; host or cells: VP16: E. coli BL21(DE3); VP22: L-particles of recombinant virus vUL49ep grown in BHK cells
T1 sequence (P06492 whole entry): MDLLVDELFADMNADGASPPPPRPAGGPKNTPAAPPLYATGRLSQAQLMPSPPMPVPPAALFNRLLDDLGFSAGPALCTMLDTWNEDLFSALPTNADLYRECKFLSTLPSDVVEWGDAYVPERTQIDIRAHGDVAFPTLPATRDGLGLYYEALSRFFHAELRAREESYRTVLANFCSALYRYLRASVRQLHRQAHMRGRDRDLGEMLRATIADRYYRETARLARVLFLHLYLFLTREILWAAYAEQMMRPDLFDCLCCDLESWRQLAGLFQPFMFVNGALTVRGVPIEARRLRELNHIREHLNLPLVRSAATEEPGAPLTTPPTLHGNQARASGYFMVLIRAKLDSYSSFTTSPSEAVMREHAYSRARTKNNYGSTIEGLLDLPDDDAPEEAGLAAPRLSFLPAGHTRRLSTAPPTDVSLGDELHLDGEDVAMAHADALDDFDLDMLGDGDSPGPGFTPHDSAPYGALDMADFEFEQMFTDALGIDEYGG
Description: FIG. 8 Blocking of the interaction between VP16 and full length VP22 by pure peptides D and E. A vUL49ep L-particle extract was run on a 10% polyacrylamide gel and the proteins transferred to a nitrocellulose membrane. The blot was cut into strips, with each strip containing the equivalent of approximately 3×10^9 L-particles. Strips were pre-incubated with 1 mg of each of the following peptides: lane 2, no peptide; lane 3, peptide C; lane 4, peptide D; lane 5, peptide E. 2 μg of pure VP16 was then added to each incubation and bound VP16 was detected by LP1 antibody. Two strips were incubated with either LPl (lane 1) or 9220 antibody (lane 6), each at a dilution of 1:1000. The apparent molecular weights of VP16 (65 KDa) and tagged VP22 (40 KDa) are shown.
(§1) Following electrophoresis, proteins were electrotransferred to either Hybond or ProBlott (Applied Biosystems) membrane and the membrane was incubated in renaturation buffer (50 mM Tris-HCl, pH 8.0, 150 mM NaCl, 10% glycerol, 1 mM DTT) at 4° C. for 5-6 hours.
(§2) For membranes probed with either VP16 or VP22trunc, blocking was performed overnight as described for Western blot analysis. Probing with epitope-tagged VP22 or VP16 was performed in 20 mM Tris-HCl, pH 8.0, 250 mM NaCl for 1.5 hours at ambient temperature. Excess probe was removed by washing 4 times (10 minutes per wash) in 20 mM Tris-HCl, pH8.0, 250 mM NaCl, followed by incubation with the appropriate antibody at a dilution of 1:1000 in TTBS/1% gelatin for 1.5-2 hours. Bound antibody was detected as described for Western blot analysis.
The results presented thus far have established that peptides D and E block the interaction between VP16 and VP22trunc. The inhibitory effect of the peptides was further tested to examine whether they were capable of blocking the interaction of VP16 with full-length VP22.

[2] = target: T2, VP16/VP22trunc interaction (Human herpesvirus 1, UniProt P06492); experiment: Far Western analysis of peptides blocking VP16 binding to immobilised VP22trunc; design: species or system HSV-1; details: for Blocking of VP16 binding to immobilised VP22trunc (Far Western), crude peptides: strips pre-incubated with 1 mg of crude peptide, FIG. 7A; for Blocking of VP16 binding to immobilised VP22trunc (Far Western), repeat with purified peptides D and E: strips pre-incubated with 1 mg peptide, FIG. 7B
T2 construct: Plasmid pETVP16 was used to express full-length VP16 under the control of the T7 RNA polymerase promoter; made in house; host or cells: E. coli BL21(DE3)
T2 sequence (P06492 whole entry): as above
Description: FIG. 7 Far Western analysis of the ability of peptides to block the interaction between VP16 and immobilised VP22trunc. Purified VP22trunc was added to partially purified extract of VP16 and the sample run on a 12% polyacrylamide gel. Proteins were then transferred to nitrocellulose membrane and the blot was cut into strips, with each strip containing approximately 1 g of VP22trunc. In (A), strips were pre-incubated with 1 mg of each of the following peptides: lane 2, no peptide, lane 3, peptide C; lane 4, peptide D; lane 5, peptide E; lane 6, peptide F; lane 7, peptides D and E; lane 8, peptides C and F. In (B) strips were pre-incubated with 1 mg of each of the following peptides: lane 2, no peptide, lane 3, peptide C; lane 4, purified peptide D; lane 5, purified peptide E; lane 6, peptide F. 24 g of pure VP16 was then added to strips 2 to 8 in (A) and strips 2 to 6 in (B), followed by incubation with LP1 antibody (1:1000 dilution). As a control, portions of the blot were incubated with LP1 or the 9220 antibody at a dilution of 1:1000 (lane 1 for LP1 in A and B; lane 9 in A and lane 7 in B for 9220). The apparent molecular weights of VP16 (65 KDa) and the dimer (32 KDa) and monomer (16 KDa) forms of VP22trunc are shown.
as §1, §2
Based on the studies with soluble VP16 and VP22trunc presented above, only a restricted number of peptides were examined by Far Western analysis to identify those that may prevent binding of VP16. Thus, VP22trunc was added to a crude extract of bacterially expressed VP16 and the proteins were electrophoresed on a polyacrylamide gel followed by transfer to a membrane. […] Before the addition of VP16 the blot strips in lanes 3 to 8 were incubated with crude preparations of peptides C, D, E, or E' as well as mixtures of either 0 and E or C and F. When the blot strips were incubated with peptides C and F either singly or in combination, VP16 bindincg to VP22trunc was not prevented (FIG. 7A, lanes 3, 6 and 8).

[3] = Solubility of synthetic peptides in buffer; type: physicochemical; details: for Solubility following purification: HPLC-purified peptides; for Solubility: peptides dissolved in 20 mM Tris-HCl, pH 8.0, 250 mM NaCl, unpurified preparations
Description: Synthesis and Purification of Oligopeptides. Peptides were synthesised by continuous flow Fmoc chemistry (Atherton and Sheppard, 1989; McLean et al., 1991) and, where stated in the text, were purified by preparative reverse-phase HPLC (Owsianka et al., 1993). The Mr values of peptides were determined by fast atom bombardment mass spectrometry (M-Scan) and corresponded to the predicted values. Peptides were dissolved in 20 mM Tris-HCl, pH 8.0, 250 mM NaCl and centrifuged at 11,500 g for 1 minute prior to use. […] Precipitates were removed by centrifugation before use.

Sequence | Blocking of VP16 binding to full-length VP22 (Far Western) [1] | Blocking of VP16 binding to immobilised VP22trunc (Far Western), crude peptides [2] | Blocking of VP16 binding to immobilised VP22trunc (Far Western), repeat with purified peptides D and E [2] | Solubility following purification [3] | Solubility [3]
TPRVAGFNKRVFCAAVGRLA [Peptide D] | completely blocks binding of VP16 to VP22 | loss of recognition of VP22trunc | able to block binding of VP16 to VP22trunc | not 100% soluble | partly; also recorded: partially insoluble
CAAVGRLAAMHARMAAVQLW [Peptide E] | completely blocks binding of VP16 to VP22 | loss of recognition of VP22trunc | able to block binding of VP16 to VP22trunc | not 100% soluble | partly; also recorded: partially insoluble
FSTAPPNPDAPWTPRVAGFN [Peptide C] | does not hinder the interaction | not prevented | had no effect | – | soluble
